{"source": "paper PMC6697681", "about": "“The predominance of nucleotidyl activation in bacterial phosphonate biosynthesis” (Nature Communications, 2019)", "proteins": {"B1": {"name": "Tde-PntC (Tde1415) (Treponema denticola ATCC 35405) (protein)", "chain": "MIKQAVILAGGLGSRLKDKTKTMPKGFLEIGGTAIVEQSVQKLLAHGIEKIVIGTGHCNEYYDNLAKKYPAIITVKNENYANTGSMGTLEVCASFVNESFLLLESDLIYDSAGLFSLINDERKNLILASGATKSGDEVYLEADEKNCLTGLSKNRDALKNIFGELVGITKLTKSTLDKMCAYAKIHHSDLPKMEYEHALLEAAKTIPVAIKRIEYFVWREIDNEDHLEMAVKNIYPHIVENEKLRAVRREVLLNPGPATTTDSVKYAQVSADICPREKAFGDLMQWLCDELKLFALASETNPDEYETVMFGCSGTGADEVMVSSCVPDTGRLLVIDNGSYGARMAKIADIYKIPMDIFKSSTYEPLDLQKLEAEFATKKYTHLACVYHETTTGLLNPLHIICPMAKKYGMVTIVDAVSAYCGMPMDLKSLGIDFMASTSNKNIQGMAGVGFVICNKAELEKTKDYPMRNYYLNLYDQYAYFAKTHQTRFTPPVQTMYALRQAVLETKQETVQKRYERYTACWNILVAAIKKLGLKMLVKEEHQSHFITAILEPETPKYSFEALHDFAAEHSFTIYPGKLGNIDTFRIANIGDIQPEEMRRFTVKLKEYMNGIGVGV"}}, "substrate": "NCCP(=O)(O)O", "assay": "purified protein", "conditions": "saturating CTP (4 mM), 7 mM MgCl2, room temperature", "description": "coupled pyrophosphate release assay (EnzChek, MESG/PNP), initial rates on Tde-PntC (Tde1415)", "data": [{"protein": "B1", "values": [{"measurement": "Km", "value": "16 ± 5", "unit": "µM"}]}]}
